The values that follow come from the RNAGym collection of RNA variant scans (doi:10.7554/elife.80360).

Sequences and labels used below:
B1: HDV Ribozyme (parent)
chain: GGCCGGCAUGGUCCCAGCCUCCUCGCUGGCGCCGGCUGGGCAACAUUCCGAGGGGACCGUCCCCUCGGUAAUGGCGAAUGGGACCCA

Variants of B1 are the subject of this data set. The experiment in a line: self-cleavage, relative activity (ratio to wild type); higher = more cleavage; co-transcriptional.
In the case of C24G A70G, the self-cleavage was found to be 0.0594. Consider G55C G67A, for which the self-cleavage stood at 1.08. The same measure for C33A C41U: 0.163. Consider U20G G40C, for which the self-cleavage turned out to be 0.0462. With C15A U20C, the self-cleavage was found to be 0.135. In the case of C14A C18A, the self-cleavage stood at 0.

Take G39U C63A: the self-cleavage was 0.598. Regarding C4U C22A, the self-cleavage came out at 0.188. On to G31A U79G, for which the self-cleavage amounted to 0.266. With G53U C75A the figure was 0.117; with C33A U79G, 0.214; with U20C G29U, 0.0519. A16U C62A: the self-cleavage was determined as 0.897. For U69A A70C, the self-cleavage came out at 0.745.

Take C41G A42G: the self-cleavage came out at 0.332. As to C18U A83C, the self-cleavage was determined as 0.227. In the case of C48G C75G, the self-cleavage turned out to be 0.0639. Turning to G6A G34A, the self-cleavage was determined as 0.0287. C32A U79C: the self-cleavage came out at 0.0733.

Consider C22A G81C, for which the self-cleavage is 0.128. Regarding C48G G53A, the self-cleavage worked out at 1.06. For G2A U72A, the self-cleavage turned out to be 0.053. Turning to G1C A87C, the self-cleavage is 0.156. On to G10C U12C, for which the self-cleavage was determined as 0.0978.

For U9G C84U, the self-cleavage turned out to be 0.831. As for U20C A70U, the self-cleavage is 0.0594. With C49A G54A, the self-cleavage amounted to 0.589. As for G34A G50A, the self-cleavage came out at 0.16.

Take A56U C57U: the self-cleavage turned out to be 0.886.

In the case of C14G A56G, the self-cleavage amounted to 0.646. With G5A U46G the figure was 0.161. As to A42U A77U, the self-cleavage is 0.0739. Regarding C3A C33G, the self-cleavage was 0.

U46G U72G: the self-cleavage was 0.623.

With A8G C61G, the self-cleavage is 1.04. With G35A A43C, the self-cleavage was determined as 0.0272.

G5C G10U: the self-cleavage came out at 0.0489. The same measure for C30G C84U: 0.0268; for U23G G59U: 0.886. The same measure for A71U A77C: 0.287; for G82C A87U: 0.247; for G2C A16C: 0.0361.

Turning to C14G G28U, the self-cleavage was determined as 0.107. For C7G C13A, the self-cleavage amounted to 0. Consider A43G A56C, for which the self-cleavage was determined as 0.587. As to G5U C64G, the self-cleavage came to 0.161. With U47A C84G the figure was 0.831; with G1C G35A, 0.208; with U37A A42C, 0.246. The same measure for U47G C61U: 0.943; for G35A C66U: 0.655. For U20C G80U, the self-cleavage amounted to 0.0625. Consider G17A C58G, for which the self-cleavage worked out at 0.812. G2C U20C: the self-cleavage came out at 0.0536. The same measure for G29C A83U: 0.0462; for U37C A87C: 1.21. On to A8C U23A, for which the self-cleavage stood at 0.615. As to G6U U72G, the self-cleavage worked out at 0.133. Take U20G A71G: the self-cleavage came to 0.196. For G17A G73A, the self-cleavage was determined as 0.34. For the variant G1C G76A, the self-cleavage amounted to 0.26. As to A16C G34U, the self-cleavage amounted to 0.0489. As to A56G C63G, the self-cleavage was 0.59. For the variant A56U G73U, the self-cleavage was found to be 0.415. In the case of G6A C32A, the self-cleavage was determined as 0.277. On to U23C G73A, for which the self-cleavage worked out at 0.525. With C26A U65G the figure was 0.646; with G28A G50A, 0.0906; with C4A G17C, 0.0386. Turning to C3U U47G, the self-cleavage turned out to be 0.594.

With G5A C26U, the self-cleavage is 0.511.

For G1A U65G, the self-cleavage was determined as 0. With G40U A56G, the self-cleavage came out at 0.677. As for G25A U69G, the self-cleavage is 0.233.

Take U37C A56C: the self-cleavage was determined as 1.11.

Turning to G39C C58U, the self-cleavage stood at 0.0923. As to U20G C61U, the self-cleavage came to 0.131.

Take G39C C84U: the self-cleavage turned out to be 0.196.

As to C32G U79G, the self-cleavage turned out to be 0.172.

With G29C U37A, the self-cleavage was determined as 0.201. On to C57G G81U, for which the self-cleavage was determined as 0.388.

C58A A83U: the self-cleavage amounted to 0.554.

In the case of G17C U46A, the self-cleavage stood at 0.237. G55A A83C: the self-cleavage worked out at 0.731.

Turning to C75G G82A, the self-cleavage is 0.208. With U47C A71G the figure was 1.13; with A16G C21A, 0; with U9A A51C, 0.923. Turning to U12A U72A, the self-cleavage amounted to 0.0831.

With A56C C66U, the self-cleavage worked out at 0.861.

Regarding G40A C58G, the self-cleavage worked out at 1.02.

Turning to U9C C84A, the self-cleavage is 0.65. Regarding C15U C64G, the self-cleavage amounted to 0.962. With A42C U69C the figure was 0.399; with C3A G6C, 0.0282. In the case of G5U U9G, the self-cleavage amounted to 0.554.

For the variant C18A G35A, the self-cleavage amounted to 0.199. On to C3G C58U, for which the self-cleavage came to 0.709. U27C G50A: the self-cleavage stood at 0.733. Take U9C A51U: the self-cleavage worked out at 1.06. For the variant C4U G39U, the self-cleavage was determined as 0.58. C41U G80U: the self-cleavage stood at 0.174. The same measure for C4A A78U: 0.0437. For the variant C33U C41G, the self-cleavage turned out to be 0.372. For C44G G68C, the self-cleavage came to 0.475. In the case of G1A C63U, the self-cleavage came to 0.147. Turning to G53U C85G, the self-cleavage was found to be 0.818. With C36A A56C the figure was 0.131; with U12A C75A, 0.095. With A70G U79G the figure was 0.582; with C3G G34A, 0.229; with A56G A83G, 0.831. On to C26U G80A, for which the self-cleavage was determined as 0.897. The same measure for G76C A78U: 0.339.

A43G C75G: the self-cleavage was determined as 0.161. C13G C30A: the self-cleavage was 0.0978. With G1C A51U, the self-cleavage was determined as 0.222.

Take U12A G73U: the self-cleavage came to 0.0997. Regarding G17U C85A, the self-cleavage turned out to be 0.538. As for G28A G39U, the self-cleavage came to 0.0692. With C21A G40C the figure was 0.111; with C22G C49G, 0.0277. Consider C41U C62U, for which the self-cleavage is 0.92.

With A51G G67U, the self-cleavage was found to be 0.65. Turning to U46C G74C, the self-cleavage turned out to be 0.277. The same measure for G31U A45G: 0.107; for A70G G81C: 0.277. As for G17C C63U, the self-cleavage stood at 0.397. As for C75G A77C, the self-cleavage came to 0.128. As for C3G G6C, the self-cleavage stood at 0.0475.

For C57U G67U, the self-cleavage turned out to be 0.974.

On to A42C G54A, for which the self-cleavage was determined as 0.271. In the case of A8C G73A, the self-cleavage was determined as 0.256. For the variant G54A C57G, the self-cleavage came to 0.903. On to C19U G74U, for which the self-cleavage is 0.0762.

On to A8C G17A, for which the self-cleavage was determined as 0.831. The same measure for G73A G81U: 0.18. As for G59U G82U, the self-cleavage is 0.554.

As to G1U G25A, the self-cleavage worked out at 0.354. C7G U69C: the self-cleavage was determined as 0.277.

As to C21A C26U, the self-cleavage is 0. On to A16G G29A, for which the self-cleavage stood at 0.252.

Consider C49G G55C, for which the self-cleavage is 1.03.

For G53C G76A, the self-cleavage came to 0.882.

Consider G29U C41U, for which the self-cleavage stood at 0.0432.

For the variant G68U G80C, the self-cleavage came out at 0.253. In the case of C57U G82C, the self-cleavage is 0.208. With U65A U79C the figure was 0.467. Consider G50A A77G, for which the self-cleavage came out at 0.743. As for U60G U69C, the self-cleavage is 1.09. Turning to C58A C66G, the self-cleavage worked out at 1.25. With U20G A78G, the self-cleavage turned out to be 0. For the variant C62G A78C, the self-cleavage was 0. G2A C30A: the self-cleavage is 0.0152.

Regarding G52U U69C, the self-cleavage turned out to be 0.831. For the variant A45U U72A, the self-cleavage was 0.831. For C19G C63U, the self-cleavage came to 0.0978. With C24U C26U the figure was 0.867; with C3G A83U, 0.0678; with U9G G81U, 0.437. As to A43G U79A, the self-cleavage was 0.192. As for C48G C84A, the self-cleavage came out at 0.932.

As for G35C G73C, the self-cleavage is 0.269. Regarding G5C C14A, the self-cleavage is 0.0692. As for G5U C44U, the self-cleavage is 0.369. Turning to G53A G55A, the self-cleavage was 0.923. With A42U U72A the figure was 0.511.
